Data taken from PMC4448125 (Nature communications, 2015).

Target: GST-tagged human eIF1AX (known as eIF1A), full length (human, UniProt P47813 1-144)
Assay: pull-down

Chain of GST-tagged human eIF1AX (known as eIF1A), full length (P47813 whole entry): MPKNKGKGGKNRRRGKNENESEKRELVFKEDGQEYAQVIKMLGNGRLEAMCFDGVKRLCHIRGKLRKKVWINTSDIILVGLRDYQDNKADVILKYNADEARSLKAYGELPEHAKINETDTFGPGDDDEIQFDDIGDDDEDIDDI

B1: His-SMT3-tagged MID(432 ~ 575aa) of human Ago2 (domain or fragment)
chain: not shown
binding result: binds
